Laboratory results reported in paper doi:10.1101/2022.01.11.475809, “HP1β Chromo Shadow Domain facilitates H2A ubiquitination for BRCA1 recruitment at DNA double-strand breaks” (bioRxiv, 2022).

Molecular target: T1, FL-RING1A (1–406aa), recombinant (human, UniProt Q06587 1-406)
T1 construct: Human RING1A, full length, residues 1-406; Subcloned into the bacterial expression 1GFP vector (Addgene #29663, the vector's id); purification as in Hambarde et al., 2021 with other buffers; also called RING1A-FL; Human FL-RING1A; source: bacterial expression vector, purified (HisTrap, TEV cleavage, Superdex 75)
T1 sequence (looked up): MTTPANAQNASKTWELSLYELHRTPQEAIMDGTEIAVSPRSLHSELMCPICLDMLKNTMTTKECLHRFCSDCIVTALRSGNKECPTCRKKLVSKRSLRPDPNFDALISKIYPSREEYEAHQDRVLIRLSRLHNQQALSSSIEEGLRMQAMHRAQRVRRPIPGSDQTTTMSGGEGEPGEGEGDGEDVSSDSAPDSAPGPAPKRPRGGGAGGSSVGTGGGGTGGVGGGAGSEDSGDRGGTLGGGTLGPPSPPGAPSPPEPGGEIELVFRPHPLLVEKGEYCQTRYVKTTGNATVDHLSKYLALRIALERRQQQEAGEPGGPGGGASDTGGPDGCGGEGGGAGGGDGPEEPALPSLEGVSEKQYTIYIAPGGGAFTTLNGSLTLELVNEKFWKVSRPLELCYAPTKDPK
Assay: pull-down; FL-RING1A incubated with His6-CSD HP1β at molar ratio 1:2 in buffer H (20 mM Tris pH 8, 70 mM NaCl, 5% glycerol, 5 mM BME, 100 µM ZnCl2) on ice for 20 min; Ni-NTA resin, elution with 300 mM imidazole; SDS-PAGE and western blot
Conditions: both partners purified

B1: His6-CSD HP1β (80–185aa), recombinant (domain or fragment)
chain: not shown
notes: HP1β residues 80-185 (hinge part and chromo shadow domain); 'Human' is printed before the two constructs of the sentence; Subcloned into the bacterial expression 1B vector (Addgene #29653, the vector's id); source: bacterial expression vector, purified (HisTrap, Superdex 75)
- binding result: binds
